The values that follow come from patent US7592168B2, “Cephalosporin C acylase mutant and method for preparing 7-ACA using same” (Sandoz AG, priority 2003, dated 2009).

Changes are numbered by the printed parent chain.

Data set [1] can be described thus: One-step conversion of CPC into 7-ACA (HPLC). Type of data set: biochemical. The note with it: 50 mM CPC, pH 8.5, 25° C., 1 hr, purified enzyme. The procedure:
E. coli BL21(DE3) transformant containing each one of pET29-TnS5αβ and pET29-S12 plasmids of Example <3-2> was cultivated in 5 l of a LB broth containing 20 μg/ml of kanamycin and 2% lactose at 25° C., 200 rpm for 72 hr with vigorous shaking. Further, E. coli MC1061(pBCPC) containing the wild-type CPC acylase gene was also cultivated in 10 l of a LB broth containing 25 μg/ml of chloramphenicol at 25° C., 200 rpm for 48 hr with vigorous shaking. After then, the wild-type CPC acylase, TnS5αβ and S12 CPC acylase mutants were purified from each culture broth according to the same method as described in Example <2-1>, respectively. The purified protein obtained above was subjected to dialysis with 50 mM phosphate buffer solution (pH 8.5), and the diffusate obtained by dialysis was used for a CPC conversion reaction.
After CPC was dissolved in 50 mM phosphate buffer solution (pH 8.5) at a final concentration of 50 mM, the purified enzyme solution dissolved in the same buffer solution was added to the CPC solution obtained above at a final concentration of 5 unit/mg to prepare […] of the reaction mixture. The reaction mixture was stirred at 25° C. for 1 hr to induce a CPC conversion reaction. At this time, in order to prevent pH of the reaction mixture from decreasing during the conversion reaction, when pH of the reaction mixture was reached to 8.4, 0.2 N NaOH solution was automatically injected to the reaction mixture by a pH regulator to constantly maintain pH of the reaction mixture at 8.5. 100 μl of the reaction mixture was taken from at a fixed time during the conversion reaction and immediately subjected to a HPLC analysis to quantify the amount of CPC and 7-ACA in the reaction mixture. […] In addition, the flow rate of mobile phase was 0.6 ml/min, the sample (20 μl) to be injected was prepared by appropriately diluting the reaction mixture with 50 mM phosphate buffer solution (pH 8.5), and its absorbance was detected at UV 250 nm.

Data set [2] in a line: Productivity of CPC acylase, pBC KS(+) plasmids in E. coli MC1061. The following applies: E. coli MC1061, LB, 25° C., 48 hr, crude enzyme. How it is done:
To compare the productivity of CPC acylase by pBCPC plasmid derived E. coli transformant with that by pBSEM plasmid derived E. coli transformant, a CPC acylase crude enzyme solution obtained from each E. coli transformant was prepared as follows. Each E. coli transformant was inoculated into 3 ml of a LB medium (1% Bacto-Tryptone, 0.5% Yeast Extract, 0.5% NaCl) containing 25 μg/ml of chloramphenicol and cultured at 30° C., 200 rpm for 16 hr with vigorous shaking. 50 μl of the culture solution was transformed to 50 ml of a new LB medium containing […] of chloramphenicol and further cultured at 25° C., 200 rpm for 48 hr with vigorous shaking. The culture solution was subjected to centrifugation at 4° C., 8,000 rpm for 10 min to separate a precipitate and the precipitate washed twice with 0.1 M Tris-HCl buffer solution (pH 8.0). This precipitate was suspended in 5 ml of the same buffer solution and subjected to ultra-sonication at 4° C. for 10 min. […]
The enzyme activity of CPC acylase mutant to CPC was measured according to the method described by Park et al. with minor modifications as follows (Park, et al., Kor. J. Appl. Microbiol. Biotechnol. 23: 559-564, 1995). […] After the reaction, the absorbance of reaction mixture was measured at 415 nm and quantified by comparing with a calibration curve of standard material. […] Meanwhile, the specific activity of CPC acylase mutant for CPC was determined by measuring the amount of protein remaining in the enzyme solution according to the method described by Bradford (Bradford, M., Anal. Biochem. 72: 248-254, 1976) and representing it as an active unit corresponding to 1 mg of protein. The reactivity of CPC acylase mutant to CPC was determined by the following steps of adding the same amount of protein to a reaction mixture, performing an enzyme reaction for a fixed time, measuring the amount of 7-ACA produced in the reaction mixture, and representing it as a relative value. […]

B1: Wild-type: Pseudomonas sp. SE83 derived wild-type CPC acylase (AcyII), α-subunit SEQ ID NO: 4 and β-subunit SEQ ID NO: 5, from pBCPC (protein)
alpha: TMAAKTDREALQAALPPLSGSLSIPGLSAPVRVQRDGWGIPHIKASGEADAYRALGFVHAQDRLFQMELTRRKALGRAAEWLGAEAAEADILVRRLGMEKVCRRDFEALGAEAKDMLRAYVAGVNAFLASGAPLPIEYGLLGAEPEPWEPWHSIAVMRRLGLLMGSVWFKLWRMLALPVVGAANALKLRYDDGGQDLLCIPPGVEAERLEADLAALRPAVDALLKAMGG
beta: SNNWAVAPGRTATGRPILAGDPHRVFEIPGMYAQHHLACDRFDMIGLTVPGVPGFPHFAHNGKVAYCVTHAFMDIHDLYLEQFAEDGRTARFGNEFEPVAWRRDRIAVRGGADREFDIVETRHGPVIAGDPLEGAALTLRSVQFAETDLSFDCLTRMPGASTVAQLYDATRGWGLIDHNLVAGDVAGSIGHLVRARVPSRPRENGWLPVPGWSGEHEWRGWIPHEAMPRVIDPPGGLIVTANNRVVADDHPDYLCTDCHPPYRAERIMERLVASPAFAVDDAAAIHADTLSPHVGLLRARLEALGIQGSLPAEELRQTLIAWDGRMDAGSQAASAYNAFRRALTRLVTARSGLEQAIAHPFAAVPPGVSPQGQVWWAVPTLLRNDDAGMLKGWSWDEALSEALSVATQNLTGRGWGEEHRPRFTHPLSAQFPAWAALLNPVSRPIGGDGDTVLANGLVPSAGPEATYGALSRYVFDVGNWDNSRWVVFHGASGHPASPHYADQNAPWSDCAMVPMLYSWDRIAAEAVTSQELVPA
modifications: Pseudomonas sp. SE83
Take B1: the CPC conversion rate in data set [1] is 60%. Further, the “The productivity of CPC acylase (unit/l)” value in data set [2] is “about 97 unit/l”; in data set [2] (listed as pBCPC (wild-type)) it was 97 unit/l.

B2: S12: sixfold CPC acylase mutant, α-subunit SEQ ID NO: 7 and β-subunit SEQ ID NO: 8 (protein)
alpha: B1 alpha with V121A, G139S
beta: B1 beta with F58N, I75T, I176V, S471C
modifications: alpha-subunit of mutatnt CPC acylase S12 protein; beta-subunit of mutatnt CPC acylase S12 protein
In data set [1], B2 came in with a 7-ACA yield of at least 90% and a CPC conversion rate of 98%. The “The productivity of CPC acylase (unit/l)” value in data set [2] came to 712 unit/l.
